Experimental data taken from patent US20080305111A1 (VACCINEX, published 2008).

How the values were obtained:
#5 (8454) = biological target: T1, #5 (8454); assay: Western blot of partially Lys-C digested rhC35, MAb 163, goat anti-human-HRP, TMB
T1 construct: One member of the group m17; also called predicted partial Lys-C digest fragment #5 of rhC35; 8kDa N-terminal fragment
T1 N-terminal fragment of 6-His-tagged rhC35, from the N-terminus to the first Lys-C tick: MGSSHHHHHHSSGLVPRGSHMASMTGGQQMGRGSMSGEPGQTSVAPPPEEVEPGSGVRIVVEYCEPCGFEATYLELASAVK

[1] = biological target: T2, 6×His-tagged recombinant human C35 (human); assay: SPR (Biacore), MAb 163 captured on goat anti-human IgG Fc on a CM5 chip, rC35 in solution, 1:1 kinetic model
T2 construct: Made in E. coli; also called rhC35; rC35

[2] = biological target: T3, C35 protein (recombinant, construct not stated) (human, UniProt Q9BRT3 1-115, limits assumed); assay: ELISA on C35 or control protein A27L, secreted antibody from HeLa cells
T3 construct: also called recombinant C35 protein; control C35 protein
T3 sequence: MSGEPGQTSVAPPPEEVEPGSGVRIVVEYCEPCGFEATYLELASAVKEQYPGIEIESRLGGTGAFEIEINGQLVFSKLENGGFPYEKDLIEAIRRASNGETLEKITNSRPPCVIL

[3] = biological target: T3, C35 protein (recombinant, construct not …); assay: ELISA and Western blot

B1: MAb 163 human anti-C35 monoclonal antibody (antibody, V domains shown)
VH: EVQLVESGGGLVKPGGSLRLSCEVSGITFSNAWMSWVRQAPGKGLEWVGRIKSKTDGGTTDYAAPVKGRFTISRDDSKNTLYLQMNSLKTEDTAVYYCSIGYYYDSSFKYGMDVWGQGTTVTVSS
VL: DIQMTQSPATLSASVGDRVTITCRASQSISRWLAWYQQKPGQAPKVLIYKASTLQSGVPSRFSGSGSGTEFSLTINSLQPDDFATYYCQQYYSYLRTFGQGTKLEIK
notes: Fully human antibody (clones H730 and L74), detected or captured with anti-human IgG reagents
With B1 the binding result (#5 (8454)) was “no binding”, the Ka [1] was 2.96e+08 M⁻¹ and the Kd [1] was 3.38 nM. It also gave a koff [1] of 0.000959 s⁻¹ and a kon [1] of 284000 M⁻¹ s⁻¹.

B2: MAb 165 (antibody, V domains shown)
VH: QVQLQESGPGLVKPPETLSLTCNVSGGSIGRYYWNWIRQSPGKGLEWIGHIHYSGSTIYHPSLKSRVSISLDTSKNQVSLKLSSVTAADTAVYYCARGAYYGGAFFPYFDVWGQGTTVTVSS
VL: DIQMTQSPSSLSASMGDRVTITCRASQGIRNHLAWYQQKPGKAPNLLISAASTLQSGVPTRFSGSGSGTDFTLTISSLQPEDSATYYCQQYNRYPLTFGQGTKLEIK
notes: also called 141D10 VH H732 with UH8 VK L120
B2: binds [2].

B3: 1B3 murine anti-C35 monoclonal antibody (antibody, V domains shown)
VH: EVQLQESGPSLVKPSQTLSLTCSVTGDSITSGYWNWIRKFPGNKLEYVGYISYSGGTYYNPSLKSRISITRDTSKNHYYLQLNSVTTEDTATYYCARGAYYGGAFFPYFDVWGAGTTVTVSS
VL: DVQITQSPSFLAASPGETITINCRASKYISKHLVWYQEKPGETKKLLIYSGSTLQSGLPSRFSGSGSGTDFTLTISSLEPEDFAMYYCQQHNEYPLTFGAGTKLELK
notes: also called hybridoma 1B3.6.1
B3: binds [3].
